For assay [1], the target named is T1, Human PD-1-His protein (Cat. #10377H08H, Sino Biological) (human, UniProt Q15116 25-167).
T1 construct: Bought protein; also called hPD-1-His; hu PD-1-his; not shown: His tag of the bought protein
Briefly: SPR (Biacore), antibody captured on Protein A chip, PD-1 in flow. The text has this:
(§1) IgG was affinity captured by using a Protein A biosensor chip (Cat. #29127556, GE). Human PD-1 antigen (Cat. #10377H08H, Sino Biological) and Cyno PD-1 antigen (purchased from Sino Biological) flowed across the surface of the chip, and the binding and dissociation curves were obtained by real time detection of PD-1 antibody and antigen PD-1 reaction signals by a Biacore T200 instrument. After the dissociation of each experimental cycle was completed, the biosensor chip was washed and regenerated with 10 mM Glycine-HCl pH 1.5 buffer. The experimental buffer system was 1×HBS-EP buffer solution (Cat #BR-1001-88, GE). After the experiment, GE Biacore T200 Evaluation version 3.0 software was used to fit the data with a (1:1) Langmuir model, and the affinity value was obtained.
On the technique in general: In SPR one partner is held on a chip, and binding of the other changes the refractive index at the surface.

The target of assay [2] is T1, Human PD-1-His protein (Cat. …). Put plainly: ELISA, PD-1-His coated, HRP anti-human IgG detection.
For assay [3], the target named is T2, Human PD-1-IgG1Fc fusion protein (human).
T2 construct: also called PD-1-Fc; Hu PD-1-Fc
Put plainly: competition ELISA, PD-1-Fc coated, competitor biotin-labeled PD-L1. On the procedure:
(§2) CB buffer pH 9.6 (1.59 g Na₂CO₃ and 2.93 g NaHCO₃ dissolved in 1 L distilled water) was used to dilute PD-1-Fc to 1 μg/ml, which was added to the 96-well plates at a volume of 100 μl/well and allowed to stand at 4° C. for 16 h-20 h. PBS buffer was aspirated from the 96-well plates, and the plates were washed with PBST (pH 7.4 PBS containing 0.05% tween20) buffer once. 120 μl/well PB ST/1% milk was added and incubated at room temperature for 1 h for blocking. The blocking solution was removed and the plates were washed with PBST buffer once. 90 μl anti-PD-1 antibody to be tested diluted to appropriate concentration with the sample diluent (pH 7.4 PBS containing 5% BSA, 0.05% Tween20) was added and pre-incubated at 4° C. for 1 h. […] The reaction system was removed and the plates were washed with PBST 6 times. 100 μl/well Streptavidin-Peroxidase Polymer 1:400 diluted with PBST buffer was added and incubated with shaking at room temperature for 50 min. The plates were washed with PBST 6 times. 100 μl/well TMB was added and incubated at room temperature for 5-10 min. 100 μl/well 1 M H₂SO₄ was added to stop the reaction.
(In general: An ELISA detects its analyte on a solid surface through an enzyme-linked reagent.)

Assay [4] has as its target T2, Human PD-1-IgG1Fc fusion protein. Briefly: competition ELISA, PD-1-Fc coated, competitor biotin-labeled PD-L2. The procedure: as §2
The target in assay [5] is T1, Human PD-1-His protein (Cat. …). Briefly: SPR (Biacore T200), antibody captured on Protein A chip, antigen in flow, 1:1 Langmuir.
Excerpt: as §1

In assay [6] the target is T3, Cyno PD-1 antigen (purchased from Sino Biological) (cynomolgus monkey (Cyno; simian), UniProt B0LAJ3 25-170).
T3 construct: Bought protein, construct not described; also called simian PD-1; not shown: Tag or carrier of the Sino Biological product (probably a His tag)
Described as above.
Excerpt: as §1

Experimental findings from US20220098304A1 (JIANGSU HENGRUI MEDICINE, published 2022) are described below.

Usually Kd stands for the equilibrium constant for the complex coming apart. As usually defined, the koff is the first-order rate constant of dissociation. A word on the kon: it is the second-order rate constant of association. The term EC50 denotes the concentration that produces a half-maximal response. For orientation: IC50 means the midpoint of a concentration-inhibition curve.

B1: Hu33-1.IgG4AA (antibody, V domains shown)
VH: EVQLVESGGGLVQPGGSLRLSCAASGFTFSSYAMSWVRQAPGKGLEWVATISGGGVDTYYQDNVQGRFTISRDNAKNSLYLQMNSLRAEDTAVYYCARPYGHGYFDVWGQGTTVTVSS
VL: DIQMTQSPSSLSASVGDRVTITCRASQDINNFLNWYQQKPGKAPKLLIYYTSSLHSGVPSRFSGSGSGTDFTLTISSLQPEDFATYYCQQGNTLPWTFGGGTKVEIKR
notes: Full-length IgG4-AA, kappa
In assay [1], B1 had a Kd of 19.3 nM, a koff of 0.00128 s⁻¹ and a kon of 66100 M⁻¹ s⁻¹.

B2: Hu33-7.IgG4AA (antibody, V domains shown)
VH: EVQLVESGGGLVQPGGSLRLSCAASGFTFSSYAMSWVRQAPGKGLEWVATISGGGVDTYYQDNVQGRFTISRDNAKNSLYLQMNSLRAEDTAVYYCARPYGHGYFDVWGQGTTVTVSS
VL: DIQMTQSPSSLSASVGDRVTITCRASQDINNFLNWYQQKPGGAVKLLIYYTSSLHSGVPSRFSGSGSGTDYTLTISSLQPEDFATYYCQQGNTLPWTFGGGTKVEIKR
notes: Full-length IgG4-AA, kappa
In assay [1], B2 displayed a Kd of 33.8 nM, a koff of 0.0026 s⁻¹ and a kon of 76900 M⁻¹ s⁻¹.

B3: Hu33-9.IgG4AA (antibody)
heavy: not shown
light: DIQMTQSPSSLSASVGDRVTITCRASQDINNFLNWYQQKPGGAVKLLIYYTSSLHSGVPSRFSGSGSGTDYTLTISSLQPEDFATYYCQQGNTLPWTFGGGTKVEIKRTVAAPSVFIFPPSDEQLKSGTASVVCLLNNFYPREAKVQWKVDNALQSGNSQESVTEQDSKDSTYSLSSTLTLSKADYEKHKVYACEVTHQGLSSPVTKSFNRGEC
notes: Full-length IgG4-AA, kappa
In assay [1], B3 came in with a dissociation constant Kd of 1.09 nM, a koff of 0.000153 s⁻¹ and a kon of 140000 M⁻¹ s⁻¹.

B4: Hu33-4.IgG4AA (antibody, V domains shown)
VH: EVQLVESGGGLVQPGGSLRLSCAASGFTFSSYAMSWVRQAPGKGLEWVATISGGGVDTYYQDNVQGRFTISRDNAKNSLYLQMNSLRAEDTAVYYCARPYGHGYFDVWGQGTTVTVSS
VL: DIQMTQSPSSLSASVGDRVTITCRASQDINNFLNWYQQKPGKAPKLLIYYTSSLHSGVPSRFSGSGSGTDYTLTISSLQPEDFATYYCQQGNTLPWTFGGGTKVEIKR
notes: Full-length IgG4-AA, kappa
In assay [1], B4 had a Kd of 31.4 nM, a koff of 0.00255 s⁻¹ and a kon of 81100 M⁻¹ s⁻¹.

B5: Hu33-8.IgG4AA (antibody)
heavy: not shown
light: DIQMTQSPSSLSASVGDRVTITCRASQDINNFLNWYQQKPGGAVKLLIYYTSSLHSGVPSRFSGSGSGTDYTLTISSLQPEDFATYYCQQGNTLPWTFGGGTKVEIKRTVAAPSVFIFPPSDEQLKSGTASVVCLLNNFYPREAKVQWKVDNALQSGNSQESVTEQDSKDSTYSLSSTLTLSKADYEKHKVYACEVTHQGLSSPVTKSFNRGEC
notes: Full-length IgG4-AA, kappa
Take B5: in assay [1], binding was characterised by a dissociation constant (Kd) of 1.06 nM, the koff was 0.000162 s⁻¹ and the kon worked out at 153000 M⁻¹ s⁻¹.

B6: H005-1 (positive control anti-PD-1 antibody, see H005-1 antibody in WO2015085847) (antibody, V domains shown)
VH: EVQLVESGGGLVQPGGSLRLSCAASGFTFSSYMMSWVRQAPGKGLEWVATISGGGANTYYPDSVKGRFTISRDNAKNSLYLQMNSLRAEDTAVYYCARQLYYFDYWGQGTTVTVSS
VL: DIQMTQSPSSLSASVGDRVTITCLASQTIGTWLTWYQQKPGKAPKLLIYTATSLADGVPSRFSGSGSGTDFTLTISSLQPEDFATYYCQQVYSIPWTFGGGTKVEIKR
Turning to B6, in assay [2], the EC50 was 0.113 µg/mL. In addition, in assay [2], the “OD value MAX” value was found to be 1.21 OD. Besides, the IC50 in assay [3] is 0.11 µg/mL; in assay [4], 0.225 µg/mL.

B7: Hu23-11.IgG4AA (antibody, V domains shown)
VH: EVQLVQSGAEVKKPGSSVKVSCKASGGTFSDYEMHWVRQAPGQGLEWMGLIDPETGGTVYNQKFKDRVTITADKSTSTAYMELSSLRSEDTAVYYCARERFSYYGSTSDWYFDVWGQGTTVTVSS
VL: DIVMTQTPLSLPVTPGEPASISCRSSQSLVHSTGNTYLEWYLQKPGQSPQLLIYKVSNRFSGVPDRFSGSGSGTDFTLKISRVEAEDVGVYYCFQGSHVPYTFGGGTKVEIKR
notes: Full-length IgG4-AA, kappa; also called Hu23LCDR1 (N28T)
B7: in assay [2], it took 0.237 µg/mL to reach a half-maximal effect (EC50) and the “OD value MAX” value amounted to 1.46 OD. In assay [1], this molecule showed a Kd of 2.71 nM, a koff of 0.000114 s⁻¹ and a kon of 42200 M⁻¹ s⁻¹. In addition, in assay [3], the IC50 turned out to be 0.0924 µg/mL. This molecule registered an IC50 in assay [4] of 0.245 µg/mL. Besides, in assay [5], the Kd was determined as 1.86 nM, the koff is 0.000113 s⁻¹ and the kon is 60600 M⁻¹ s⁻¹. For the same molecule, in assay [6], the Kd is 2.62 nM, the koff was found to be 0.000126 s⁻¹ and the kon came to 47900 M⁻¹ s⁻¹.

B8: Hu32a-85.IgG4AA (antibody, V domains shown)
VH: EVQLVQSGAEVKKPGSSVKVSCKASDFTFTDYEIHWVKQAPGHGLEWIGLFDPETGGIVYNQKFKGKATLTADKSTSTAYMEFSSLRSEDTAVYYCTREGYNRDWYFDVWGQGTTVTVSS
VL: DIVMTQTPLSLPVTPGEPASISCRSSQSLVHSTGNTYLEWYLQKPGQSPQLLIYKVSNRFSGVPDRFSGSGSGTDFTLKISRVEAEDVGVYYCFQGSHVPYTFGGGTKVEIKR
notes: Full-length IgG4-AA, kappa
B8: in assay [2], the EC50 stood at 0.136 µg/mL and the “OD value MAX” value stood at 1.26 OD. In assay [1], this molecule gave a Kd of 3.18 nM, a koff of 0.000315 s⁻¹ and a kon of 99000 M⁻¹ s⁻¹. Moreover, the IC50 in assay [3] worked out at 0.0786 µg/mL. In assay [4], the concentration for half-maximal inhibition (IC50) was 0.206 µg/mL. In assay [5], the affinity, expressed as Kd, was 3.25 nM; the koff is 0.000278 s⁻¹; the kon is 85600 M⁻¹ s⁻¹. In assay [6], this molecule came in with a Kd of 4.11 nM, a koff of 0.000475 s⁻¹ and a kon of 116000 M⁻¹ s⁻¹.
